Reference: patent US20140274782A1, “AFFINITY REAGENTS AND METHODS FOR DETECTION, PURIFICATION, AND PROTEOMIC ANALYSIS OF METHYLATED PROTEINS” (The Board of Trustees of the Leland Stanford Junior …, priority 2013, published 2014)

Legend:
[1] = test system: 3×MBT domain of L3MBTL1; experiment: Triple SILAC pull-down, 3xMBT/3xMBTD355N ratio (cytoplasmic, nuclear and chromatin fractions of 293T cells); assay type: binding, human; conditions: SILAC ratio, pull-down 3xMBT vs 3xMBTD355N; for 3xMBT/D355N UNC Heavy: experiment with UNC0638 in heavy SILAC media; for 3xMBT/D355N UNC Light: experiment with UNC0638 in light SILAC media;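 for all read-outs here: proteins quantified with MaxQuant, requiring at least two unique peptides and quantification in both label directions, normalized to the mean of proteins from a digested loading control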
[2] = target: T1, G9a and GLP (Homo sapiens, UniProt Q96KQ7+Q9H9B1); experiment: Triple SILAC pull-down after UNC0638 treatment of 293T cells, DMSO/UNC0638 ratio of protein captured by 3×MBT; assay type: cell-based; parameters: endogenous in cells; host or cells: HEK 293T; conditions: for Relative to UNC0638 UNC Heavy / Relative to UNC0638 UNC Light: SILAC ratio DMSO/UNC0638 of protein pulled down with 3xMBT; for Relative to UNC0638 UNC Heavy: UNC0638 in heavy SILAC media; for Relative to UNC0638 UNC Light: UNC0638 in light SILAC media; for Relative to UNC0638 Average: average of UNC Light and UNC Heavy experiments;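 for all read-outs here: mass spectrometry (Q-Exactive) SILAC quantitation, DMSO/UNC0638 ratio computed after subtracting 3×MBTD355N mutant pull-down background, only proteins with at least twofold 3×MBT over mutant signal considered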
T1 sequence (Q96KQ7 2-1210 limits assumed): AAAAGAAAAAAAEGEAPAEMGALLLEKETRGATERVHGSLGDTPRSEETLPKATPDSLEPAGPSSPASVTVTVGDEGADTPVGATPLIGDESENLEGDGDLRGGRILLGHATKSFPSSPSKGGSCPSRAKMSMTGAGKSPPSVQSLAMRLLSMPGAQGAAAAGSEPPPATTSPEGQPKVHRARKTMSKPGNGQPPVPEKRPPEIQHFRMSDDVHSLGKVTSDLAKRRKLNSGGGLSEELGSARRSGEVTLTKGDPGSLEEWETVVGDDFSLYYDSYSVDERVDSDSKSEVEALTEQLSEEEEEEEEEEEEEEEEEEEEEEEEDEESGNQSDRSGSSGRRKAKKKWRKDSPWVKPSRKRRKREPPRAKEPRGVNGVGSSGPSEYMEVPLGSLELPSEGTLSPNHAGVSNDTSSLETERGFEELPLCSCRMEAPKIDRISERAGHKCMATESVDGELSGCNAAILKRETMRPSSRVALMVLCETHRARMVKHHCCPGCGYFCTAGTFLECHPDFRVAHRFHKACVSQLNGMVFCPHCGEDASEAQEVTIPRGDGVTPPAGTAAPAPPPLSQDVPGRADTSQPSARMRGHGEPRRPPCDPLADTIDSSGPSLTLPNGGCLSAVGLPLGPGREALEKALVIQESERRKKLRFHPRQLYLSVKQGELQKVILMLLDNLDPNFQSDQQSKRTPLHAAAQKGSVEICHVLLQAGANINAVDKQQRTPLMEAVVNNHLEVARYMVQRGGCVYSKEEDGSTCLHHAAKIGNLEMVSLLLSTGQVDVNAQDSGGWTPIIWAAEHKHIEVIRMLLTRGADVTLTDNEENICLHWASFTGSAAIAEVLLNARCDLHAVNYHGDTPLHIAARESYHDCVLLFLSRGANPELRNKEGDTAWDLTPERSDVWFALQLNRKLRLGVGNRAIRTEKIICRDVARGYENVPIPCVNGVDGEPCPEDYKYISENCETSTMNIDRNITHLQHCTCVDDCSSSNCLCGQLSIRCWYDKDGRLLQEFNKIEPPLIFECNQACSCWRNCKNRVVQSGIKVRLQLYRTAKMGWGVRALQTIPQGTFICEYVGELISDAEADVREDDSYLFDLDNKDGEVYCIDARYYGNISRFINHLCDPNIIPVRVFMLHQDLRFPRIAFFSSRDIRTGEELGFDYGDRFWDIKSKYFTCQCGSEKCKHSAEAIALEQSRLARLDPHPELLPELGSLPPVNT
T1 sequence (Q9H9B1 2-1298 limits assumed): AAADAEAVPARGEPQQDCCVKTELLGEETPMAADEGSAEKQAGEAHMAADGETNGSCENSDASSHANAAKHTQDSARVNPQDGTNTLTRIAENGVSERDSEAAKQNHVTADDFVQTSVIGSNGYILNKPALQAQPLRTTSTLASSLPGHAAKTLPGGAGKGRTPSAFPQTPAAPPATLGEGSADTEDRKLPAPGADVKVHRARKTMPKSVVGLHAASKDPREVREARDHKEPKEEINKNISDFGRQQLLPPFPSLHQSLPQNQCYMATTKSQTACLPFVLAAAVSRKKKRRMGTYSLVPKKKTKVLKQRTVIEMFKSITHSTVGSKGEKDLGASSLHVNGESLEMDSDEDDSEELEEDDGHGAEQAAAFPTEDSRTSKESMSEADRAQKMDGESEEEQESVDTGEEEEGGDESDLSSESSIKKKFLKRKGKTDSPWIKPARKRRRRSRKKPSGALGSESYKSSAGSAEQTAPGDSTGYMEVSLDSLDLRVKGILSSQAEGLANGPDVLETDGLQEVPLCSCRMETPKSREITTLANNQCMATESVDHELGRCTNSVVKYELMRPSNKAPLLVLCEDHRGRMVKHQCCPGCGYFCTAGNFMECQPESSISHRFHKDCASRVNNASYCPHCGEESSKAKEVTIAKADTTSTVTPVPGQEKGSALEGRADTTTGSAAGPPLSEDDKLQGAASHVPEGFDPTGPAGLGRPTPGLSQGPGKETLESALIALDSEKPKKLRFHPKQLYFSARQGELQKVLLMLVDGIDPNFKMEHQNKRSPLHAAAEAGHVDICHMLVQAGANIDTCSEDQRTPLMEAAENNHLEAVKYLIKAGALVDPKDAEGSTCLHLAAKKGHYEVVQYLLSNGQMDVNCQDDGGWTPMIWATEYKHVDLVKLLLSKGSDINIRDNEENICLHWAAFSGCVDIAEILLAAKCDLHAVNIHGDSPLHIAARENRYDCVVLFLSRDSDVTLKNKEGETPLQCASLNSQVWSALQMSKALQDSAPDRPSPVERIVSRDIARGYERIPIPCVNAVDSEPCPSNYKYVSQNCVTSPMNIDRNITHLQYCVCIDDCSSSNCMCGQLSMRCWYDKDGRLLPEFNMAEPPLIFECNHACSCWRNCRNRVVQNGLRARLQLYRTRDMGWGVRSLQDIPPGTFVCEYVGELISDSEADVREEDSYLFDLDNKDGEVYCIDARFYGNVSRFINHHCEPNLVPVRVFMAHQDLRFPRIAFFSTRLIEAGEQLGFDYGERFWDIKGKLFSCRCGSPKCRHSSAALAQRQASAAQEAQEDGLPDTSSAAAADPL

Molecule | 3xMBT/D355N UNC Heavy [1] | 3xMBT/D355N UNC Light [1] | Relative to UNC0638 UNC Heavy [2] | Relative to UNC0638 UNC Light [2] | Relative to UNC0638 Average [2]
HNRNPF (protein, UniProt P52597 1-415, looked up) Heterogeneous nuclear …: MMLGPEGGEGFVVKLRGLPWSCSVEDVQNFLSDCTIHDGAAGVHFIYTREGRQSGEAFVELGSEDDVKMALKKDRESMGHRYIEVFKSHRTEMDWVLKHSGPNSADSANDGFVRLRGLPFGCTKEEIVQFFSGLEIVPNGITLPVDPEGKITGEAFVQFASQELAEKALGKHKERIGHRYIEVFKSSQEEVRSYSDPPLKFMSVQRPGPYDRPGTARRYIGIVKQAGLERMRPGAYSTGYGGYEEYSGLSDGYGFTTDLFGRDLSYCLSGMYDHRYGDSEFTVQSTTGHCVHMRGLPYKATENDIYNFFSPLNPVRVHIEIGPDGRVTGEADVEFATHEEAVAAMSKDRANMQHRYIELFLNSTTGASNGAYSSQVMQGMGVSAAQATYSGLESQSVSGCYGAGYSGQNSMGGYD | 1.66 log base 2 | 2.25 log base 2 | 0.28 log base 2 | −0.02 log base 2 | 0.13 log base 2
LRWD1 (protein, UniProt Q9UFC0 1-647, looked up) Leucine-rich repeat and WD …: MGPLSARLLMQRGRPKSDRLGKIRSLDLSGLELLSEHLDPKLLCRLTQLQELDLSNNHLETLPDNLGLSHLRVLRCANNQLGDVTALCQFPKLEELSLEGNPFLTVNDNLKVSFLLPTLRKVNGKDASSTYSQVENLNRELTSRVTAHWEKFMATLGPEEEAEKAQADFVKSAVRDVRYGPESLSEFTQWRVRMISEELVAASRTQVQKANSPEKPPEAGAAHKPRARLAALKRPDDVPLSLSPSKRACASPSAQVEGSPVAGSDGSQPAVKLEPLHFLQCHSKNNSPQDLETQLWACAFEPAWEEGATSQTVATCGGEAVCVIDCQTGIVLHKYKAPGEEFFSVAWTALMVVTQAGHKKRWSVLAAAGLRGLVRLLHVRAGFCCGVIRAHKKAIATLCFSPAHETHLFTASYDKRIILWDIGVPNQDYEFQASQLLTLDTTSIPLRLCPVASCPDARLLAGCEGGCCCWDVRLDQPQKRRVCEVEFVFSEGSEASGRRVDGLAFVNEDIVASKGSGLGTICLWSWRQTWGGRGSQSTVAVVVLARLQWSSTELAYFSLSACPDKGIVLCGDEEGNVWLYDVSNILKQPPLLPAALQAPTQILKWPQPWALGQVVTKTMVNTVVANASFTYLTALTDSNIVAIWGRM | 2.59 log base 2 | 2.64 log base 2 | 0.01 log base 2 | 0.25 log base 2 | 0.13 log base 2
CAPRIN1 (protein, UniProt Q14444 2-709, looked up) Caprin-1: PSATSHSGSGSKSSGPPPPSGSSGSEAAAGAGAAAPASQHPATGTGAVQTEAMKQILGVIDKKLRNLEKKKGKLDDYQERMNKGERLNQDQLDAVSKYQEVTNNLEFAKELQRSFMALSQDIQKTIKKTARREQLMREEAEQKRLKTVLELQYVLDKLGDDEVRTDLKQGLNGVPILSEEELSLLDEFYKLVDPERDMSLRLNEQYEHASIHLWDLLEGKEKPVCGTTYKVLKEIVERVFQSNYFDSTHNHQNGLCEEEEAASAPAVEDQVPEAEPEPAEEYTEQSEVESTEYVNRQFMAETQFTSGEKEQVDEWTVETVEVVNSLQQQPQAASPSVPEPHSLTPVAQADPLVRRQRVQDLMAQMQGPYNFIQDSMLDFENQTLDPAIVSAQPMNPTQNMDMPQLVCPPVHSESRLAQPNQVPVQPEATQVPLVSSTSEGYTASQPLYQPSHATEQRPQKEPIDQIQATISLNTDQTTASSSLPAASQPQVFQAGTSKPLHSSGINVNAAPFQSMQTVFNMNAPVPPVNEPETLKQQNQYQASYNQSFSSQPHQVEQTELQQEQLQTVVGTYHGSPDQSHQVTGNHQQPPQQNTGFPRSNQPYYNSRGVSRGGSRGARGLMNGYRGPANGFRGGYDGYRPSFSNTPNSGYTQSQFSAPRDYSGYQRDGYQQNFKRGSGQSGPRGAPRGRGGPPRPNRGMPQMNTQQVN | 2.45 log base 2 | 4.36 log base 2 | −1.08 log base 2 | 1.34 log base 2 | 0.13 log base 2
FTSJD2 (protein, UniProt Q8IYT2 1-770, looked up) Cap-specific mRNA …: MSKCRKTPVQQLASPASFSPDILADIFELFAKNFSYGKPLNNEWQLPDPSEIFTCDHTELNAFLDLKNSLNEVKNLLSDKKLDEWHEHTAFTNKAGKIISHVRKSVNAELCTQAWCKFHEILCSFPLIPQEAFQNGKLNSLHLCEAPGAFIASLNHYLKSHRFPCHWSWVANTLNPYHEANDDLMMIMDDRLIANTLHWWYFGPDNTGDIMTLKFLTGLQNFISSMATVHLVTADGSFDCQGNPGEQEALVSSLHYCEVVTALTTLGNGGSFVLKMFTMFEHCSINLMYLLNCCFDQVHVFKPATSKAGNSEVYVVCLHYKGREAIHPLLSKMTLNFGTEMKRKALFPHHVIPDSFLKRHEECCVFFHKYQLETISENIRLFECMGKAEQEKLNNLRDCAIQYFMQKFQLKHLSRNNWLVKKSSIGCSTNTKWFGQRNKYFKTYNERKMLEALSWKDKVAKGYFNSWAEEHGVYHPGQSSILEGTASNLECHLWHILEGKKLPKVKCSPFCNGEILKTLNEAIEKSLGGAFNLDSKFRPKQQYSCSCHVFSEELIFSELCSLTECLQDEQVVVPSNQIKCLLVGFSTLRNIKMHIPLEVRLLESAELTTFSCSLLHDGDPTYQRLFLDCLLHSLRELHTGDVMILPVLSCFTRFMAGLIFVLHSCFRFITFVCPTSSDPLRTCAVLLCVGYQDLPNPVFRYLQSVNELLSTLLNSDSPQQVLQFVPMEVLLKGALLDFLWDLNAAIAKRHLHFIIQREREEIINSLQLQN | 2.92 log base 2 | 3.09 log base 2 | 0.09 log base 2 | 0.17 log base 2 | 0.13 log base 2
